Data from patent US7407939B2, “Protein kinase inhibitors comprising ATP mimetics conjugated to peptides or peptidomimetics” (CureGenics Ltd., priority 2001, dated 2008).
pIC50: −log10 of the molar value. Where no end group is shown, it is not given here. Side-chain parts run from the residue outwards. [ ]: non-standard residue; d: D form. The star is where a group is joined. SO2‑IQ = 5-aminoethylsulfoneamide isoquinoline, O=S(=O)(NCCN*)c1cccc2cnccc12; X1 = 5‑aminoethylsulfonamide isoquinoline, O=S(=O)(NCCN*)c1cccc2cnccc12; hLeu = CC(C)CC[C@H](N)C(=O)O; GltNH2 = not defined here; Nle = CCCC[C@H](N)C(=O)O; Orn = NCCC[C@H](N)C(=O)O; Dab = NCC[C@H](N)C(=O)O; Nva = CCC[C@H](N)C(=O)O; Abu = CC[C@H](N)C(=O)O; Dap = NC[C@H](N)C(=O)O; Ph2 = not defined here; GlyNH2 = aminoglycine

Biological target: T1, PKB (Homo sapiens, UniProt P31749)
T1 construct: His; HA; made in house
T1 sequence (P31749 whole entry, species assumed): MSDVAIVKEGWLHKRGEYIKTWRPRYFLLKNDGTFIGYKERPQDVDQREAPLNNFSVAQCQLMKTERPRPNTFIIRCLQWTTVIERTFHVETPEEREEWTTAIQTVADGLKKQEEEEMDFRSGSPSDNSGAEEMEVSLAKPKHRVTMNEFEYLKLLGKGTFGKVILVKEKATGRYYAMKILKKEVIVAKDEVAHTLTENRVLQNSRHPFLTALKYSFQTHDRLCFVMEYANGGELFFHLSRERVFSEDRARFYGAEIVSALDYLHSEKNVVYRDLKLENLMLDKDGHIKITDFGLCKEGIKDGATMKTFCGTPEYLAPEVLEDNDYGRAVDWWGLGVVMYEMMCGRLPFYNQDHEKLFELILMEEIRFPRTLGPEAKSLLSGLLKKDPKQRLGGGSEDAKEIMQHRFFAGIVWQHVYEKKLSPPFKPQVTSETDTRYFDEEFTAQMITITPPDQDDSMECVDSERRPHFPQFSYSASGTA
Assay: PKB in vitro kinase activity assay (soluble His-HA-PKB / SPA bead screening)
Type: biochemical
Set-up: % Inhibition PKB I / % Inhibition PKB II: concentration or dose not given beside the values
Details: for % Inhibition PKB I / % Inhibition PKB II: plate screening, peptide moiety alone; for PKB-kinase (spa) Assay 1, % inhibition of kinase activity / PKB-kinase (spa) Assay 2, % inhibition of kinase activity: 1 μM compound concentration

| pIC50 (chimeric PTR compounds (peptide conjugated to isoquinoline small molecule), read-out: PKB IC50) | % Inhibition PKB I | % Inhibition PKB II | PKB-kinase (spa) Assay 1, % inhibition of kinase activity | PKB-kinase (spa) Assay 2, % inhibition of kinase activity | Substance |
| --- | --- | --- | --- | --- | --- |
|  | 62% |  |  |  | 60002-50 (RPRTSA[hLeu]) [Compound 60002-50] |
|  |  |  | 34% | 53% | 60020-4: Arg-Pro-Arg-Dap-Glu(5-aminoethylsulfonamide isoquinoline)-Orn-Hol (RPR[Dap]E(X1)[Orn][hLeu]) |
|  |  |  | 36% | 29% | 60020-13: Arg-Pro-Arg-Orn-Glu(5-aminoethylsulfonamide isoquinoline)-Ala-Phe (RPR[Orn]E(X1)AF) |
|  |  |  | 5% | 37% | 60020-16: Arg-Pro-Arg-Orn-Glu(5-aminoethylsulfonamide isoquinoline)-Nva-Hol (RPR[Orn]E(X1)[Nva][hLeu]) |
|  |  |  | 32% | 26% | 60020-19: Arg-Pro-Arg-Abu-Glu(5-aminoethylsulfonamide isoquinoline)-Orn-Phe (RPR[Abu]E(X1)[Orn]F) |
|  |  |  | −2% | 6% | 60020-21: Arg-Pro-Arg-Abu-Glu(5-aminoethylsulfonamide isoquinoline)-Ala-Phe (RPR[Abu]E(X1)AF) |
|  |  |  | −17% | −12% | 60020-24: Arg-Pro-Arg-Abu-Glu(5-aminoethylsulfonamide isoquinoline)-Nva-Hol (RPR[Abu]E(X1)[Nva][hLeu]) |
|  |  |  | 63% | 25% | 60020-27: Arg-Pro-Arg-Nle-Glu(5-aminoethylsulfonamide isoquinoline)-Orn-Phe (RPR[Nle]E(X1)[Orn]F) |
|  |  |  | 29% | 53% | 60020-45: Arg-Pro-Arg-Orn-Glu(Gly-5-aminoethylsulfonamide isoquinoline)-Ala-Phe (RPR[Orn]E([Gly-X1])AF) |
|  |  |  | 37% | 57% | 60020-46: Arg-Pro-Arg-Orn-Glu(Gly-5-aminoethylsulfonamide isoquinoline)-Ala-Hol (RPR[Orn]E([Gly-X1])A[hLeu]) |
|  |  |  | 21% | 33% | 60020-47: Arg-Pro-Arg-Orn-Glu(Gly-5-aminoethylsulfonamide isoquinoline)-Nva-Phe (RPR[Orn]E([Gly-X1])[Nva]F) |
|  |  |  | 10% | 22% | 60020-48: Arg-Pro-Arg-Orn-Glu(Gly-5-aminoethylsulfonamide isoquinoline)-Nva-Hol (RPR[Orn]E([Gly-X1])[Nva][hLeu]) |
|  |  |  | 29% | 40% | 60020-61: Arg-Pro-Arg-Nle-Glu(Gly-5-aminoethylsulfonamide isoquinoline)-Ala-Phe (RPR[Nle]E([Gly-X1])AF) |
|  |  |  | 29% | 38% | 60020-62: Arg-Pro-Arg-Nle-Glu(Gly-5-aminoethylsulfonamide isoquinoline)-Ala-Hol (RPR[Nle]E([Gly-X1])A[hLeu]) |
|  |  |  | 17% | 19% | 60020-63: Arg-Pro-Arg-Nle-Glu(Gly-5-aminoethylsulfonamide isoquinoline)-Nva-Phe (RPR[Nle]E([Gly-X1])[Nva]F) |

The next lines start with the substance.

| Substance | pIC50 (chimeric PTR compounds (peptide conjugated to isoquinoline small molecule), read-out: PKB IC50) | % Inhibition PKB I | % Inhibition PKB II | PKB-kinase (spa) Assay 1, % inhibition of kinase activity | PKB-kinase (spa) Assay 2, % inhibition of kinase activity |
| --- | --- | --- | --- | --- | --- |
| 6106 (RPRT[Dap](SO2‑IQ)SF) [compound 6106] | 5.00 |  |  |  |  |
| 60006-7B (RPR[Nva][GlyNH2][Abu][hLeu]) [Compound 60006-7B] |  | 53% | 47% |  |  |
| 60006-11B (RPR[Nva][GlyNH2][Dap][Ph2]; reading uncertain) [Compound 60006-11B] |  | 51% | 44% |  |  |
| 60006-16A (RPR[Nva][GlyNH2][GltNH2][hLeu]; reading uncertain) [Compound 60006-16A] |  | 42% | 42% |  |  |
| 60020-5: Arg-Pro-Arg-Dap-Glu(5-aminoethylsulfonamide isoquinoline)-Ala-Phe (RPR[Dap]E(X1)AF) |  |  |  | 46% | 26% |
| 60020-6: Arg-Pro-Arg-Dap-Glu(5-aminoethylsulfonamide isoquinoline)-Ala-Hol (RPR[Dap]E(X1)A[hLeu]) |  |  |  | 32% | 14% |
| 60020-8: Arg-Pro-Arg-Dap-Glu(5-aminoethylsulfonamide isoquinoline)-Nva-Hol (RPR[Dap]E(X1)[Nva][hLeu]) |  |  |  | 18% | 0% |
| 60020-12: Arg-Pro-Arg-Orn-Glu(5-aminoethylsulfonamide isoquinoline)-Orn-Hol (RPR[Orn]E(X1)[Orn][hLeu]) |  |  |  | 23% | 3% |
| 60020-14: Arg-Pro-Arg-Orn-Glu(5-aminoethylsulfonamide isoquinoline)-Ala-Hol (RPR[Orn]E(X1)A[hLeu]) |  |  |  | 26% | 31% |
| 60020-15: Arg-Pro-Arg-Orn-Glu(5-aminoethylsulfonamide isoquinoline)-Nva-Phe (RPR[Orn]E(X1)[Nva]F) |  |  |  | 31% | 44% |
| 60020-17: Arg-Pro-Arg-Abu-Glu(5-aminoethylsulfonamide isoquinoline)-Dab-Phe (RPR[Abu]E(X1)[Dab]F) |  |  |  | 34% | 38% |
| 60020-18: Arg-Pro-Arg-Abu-Glu(5-aminoethylsulfonamide isoquinoline)-Dab-Hol (RPR[Abu]E(X1)[Dab][hLeu]) |  |  |  | 18% | 28% |
| 60020-20: Arg-Pro-Arg-Abu-Glu(5-aminoethylsulfonamide isoquinoline)-Orn-Hol (RPR[Abu]E(X1)[Orn][hLeu]) |  |  |  | 11% | 15% |
| 60020-22: Arg-Pro-Arg-Abu-Glu(5-aminoethylsulfonamide isoquinoline)-Ala-Hol (RPR[Abu]E(X1)A[hLeu]) |  |  |  | −5% | −2% |
| 60020-23: Arg-Pro-Arg-Abu-Glu(5-aminoethylsulfonamide isoquinoline)-Nva-Phe (RPR[Abu]E(X1)[Nva]F) |  |  |  | −3% | −8% |
| 60020-26: Arg-Pro-Arg-Nle-Glu(5-aminoethylsulfonamide isoquinoline)-Dab-Hol (RPR[Nle]E(X1)[Dab][hLeu]) |  |  |  | 17% | 18% |
| 60020-28: Arg-Pro-Arg-Nle-Glu(5-aminoethylsulfonamide isoquinoline)-Orn-Hol (RPR[Nle]E(X1)[Orn][hLeu]) |  |  |  | 27% | 31% |
| 60020-29: Arg-Pro-Arg-Nle-Glu(5-aminoethylsulfonamide isoquinoline)-Ala-Phe (RPR[Nle]E(X1)AF) |  |  |  | 19% | 39% |
| 60020-30: Arg-Pro-Arg-Nle-Glu(5-aminoethylsulfonamide isoquinoline)-Ala-Hol (RPR[Nle]E(X1)A[hLeu]) |  |  |  | 14% | 38% |
| 60020-32: Arg-Pro-Arg-Nle-Glu(5-aminoethylsulfonamide isoquinoline)-Nva-Hol (RPR[Nle]E(X1)[Nva][hLeu]) |  |  |  | 12% | 32% |
| 60020-39: Arg-Pro-Arg-Dap-Glu(Gly-5-aminoethylsulfonamide isoquinoline)-Nva-Phe (RPR[Dap]E([Gly-X1])[Nva]F) |  |  |  | 17% | 16% |
| 60020-40: Arg-Pro-Arg-Dap-Glu(Gly-5-aminoethylsulfonamide isoquinoline)-Nva-Hol (RPR[Dap]E([Gly-X1])[Nva][hLeu]) |  |  |  | 36% | 22% |
| 60020-53: Arg-Pro-Arg-Abu-Glu(Gly-5-aminoethylsulfonamide isoquinoline)-Ala-Phe (RPR[Abu]E([Gly-X1])AF) |  |  |  | 20% | 13% |
| 60020-54: Arg-Pro-Arg-Abu-Glu(Gly-5-aminoethylsulfonamide isoquinoline)-Ala-Hol (RPR[Abu]E([Gly-X1])A[hLeu]) |  |  |  | 34% | 45% |
| 60020-55: Arg-Pro-Arg-Abu-Glu(Gly-5-aminoethylsulfonamide isoquinoline)-Nva-Phe (RPR[Abu]E([Gly-X1])[Nva]F) |  |  |  | 20% | 40% |
| 60020-56: Arg-Pro-Arg-Abu-Glu(Gly-5-aminoethylsulfonamide isoquinoline)-Nva-Hol (RPR[Abu]E([Gly-X1])[Nva][hLeu]) |  |  |  | 20% | 47% |
| 60020-64: Arg-Pro-Arg-Nle-Glu(Gly-5-aminoethylsulfonamide isoquinoline)-Nva-Hol (RPR[Nle]E([Gly-X1])[Nva][hLeu]) |  |  |  | 25% | 26% |
